Consider 10 molecules from patent US20240043551A1 (ADLAI NORTYE BIOPHARMA, published 2024).

Experiment [1] deals with T1, rat TNFR2 (R&D systems, 8348-R2-050) (rat, UniProt Q80WY6 23-258).
T1 construct: Bought protein
T1 sequence (looked up): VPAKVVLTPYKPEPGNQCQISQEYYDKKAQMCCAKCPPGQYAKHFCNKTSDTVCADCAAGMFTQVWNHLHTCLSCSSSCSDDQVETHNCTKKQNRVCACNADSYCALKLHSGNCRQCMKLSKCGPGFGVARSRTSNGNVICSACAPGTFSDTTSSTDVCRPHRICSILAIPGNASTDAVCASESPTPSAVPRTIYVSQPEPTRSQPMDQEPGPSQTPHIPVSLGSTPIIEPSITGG
Description: ELISA, receptor coated at 1 µg/ml. As for the experimental part: Plates were incubated at 4° C. overnight. Antibodies was titrated from 100 μg/ml in a 5-fold dilution series, and distributed 100 μL, per well and incubated at 37° C. for 1 hour. Human IgG1 isotype control (BioxCell, BE0297) was used as negative control. TNFR2 Polyclonal Antibody (Invitrogen, PAS-80159) and HRP conjugated Goat anti-Rabbit IgG Fc Secondary Antibody (Invitrogen, A16116) were used as positive control for rat TNFR2 detection.
In general terms: In an ELISA, binding on a coated surface is turned into a signal by an enzyme label.

The target of experiment [2] is T2, mouse TNFR2 (R&D systems, 426-R2-050/CF) (mouse, UniProt P25119 23-258).
T2 construct: Bought protein
T2 sequence (looked up): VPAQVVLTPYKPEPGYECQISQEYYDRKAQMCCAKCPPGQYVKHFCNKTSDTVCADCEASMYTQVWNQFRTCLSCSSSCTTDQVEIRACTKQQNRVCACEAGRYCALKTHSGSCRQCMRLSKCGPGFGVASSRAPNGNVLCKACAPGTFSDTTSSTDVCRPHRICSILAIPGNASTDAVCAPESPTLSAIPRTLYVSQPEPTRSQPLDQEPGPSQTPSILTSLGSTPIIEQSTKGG
Description: ELISA, receptor coated at 1 µg/mL. As for the experimental part: (§1) Human TNFR2 (Acro Biosystem, TN2-H5227), Human TNFR1 (Acro Biosystem, TN1-H5222), Cynomolgus TNFR2 (Sino Biological, 90102-CO8H) or mouse TNFR2 (R&D systems, 426-R2-050/CF) was coated on high binding polystyrene flat bottom micro-titer plates (Thermo Scientific, 3455) in PBS (PH=7.4, Gibco,10010-031) at 1 μg/mL and 100 μL per well. Plates were incubated at 4° C. overnight.
(§2) Plates were warmed up to room temperature the next day and washed with 200 μL PBS containing 0.1% Tween 20 (Life technologies, 003005) per well for 3 times. Plates were blocked with 200 μL PBS buffer containing 1% BSA (Fisher Scientific, BP1600-100) per well for 1 hour at 37° C. Antibodies was titrated from 5 μg/mL in a 5-fold dilution series, distributed 100 μL per well and incubated at 37° C. for 1 hour. Human IgG1 isotype control (BioxCell, BE0297) was used as negative control. Plates were washed with 200 μL PBS containing 0.1% Tween 20 (Life technologies, 003005) per well for 3 times. Goat anti-Human IgG Fc Secondary Antibody-HRP conjugate (Invitrogen, A18817) were distributed at 0.5μg/mL and 100 μL per well to detect bound antibodies. After 1-hour incubation of secondary antibody at 37° C., plates were washed with 200 μL PBS containing 0.1% Tween 20 (Life technologies, 003005) per well for 3 times. Plates were developed using TMB Substrate Solution (eBioscience, 00-4201-56) and stopped with ELISA stop solution (Invitrogen, SSO4). The level of bound antibodies was determined by reading absorbance at 450 nm. Mouse anti-human TNFR1 antibody (ThermoFisher Scientific, MA1-81005) and goat anti mouse IgG secondary antibody-HRP conjugate (Invitrogen, 62-5520) were used as positive control for human TNFR1 detection. Armenian Hamster anti-mouse TNFR2 antibody (InVivoMab, BE0247) and HRP-Goat anti-Armenian Hamster IgG (H+L) Secondary Antibody (Invitrogen, PA1-32045) were used as positive control for mouse TNFR2 detection.

The target in experiment [3] is T3, Human TNFR1 (Acro Biosystem, TN1-H5222) (human, UniProt P19438 30-211).
T3 construct: Bought protein; also called TNF receptor type 1; CD120a
T3 sequence (looked up): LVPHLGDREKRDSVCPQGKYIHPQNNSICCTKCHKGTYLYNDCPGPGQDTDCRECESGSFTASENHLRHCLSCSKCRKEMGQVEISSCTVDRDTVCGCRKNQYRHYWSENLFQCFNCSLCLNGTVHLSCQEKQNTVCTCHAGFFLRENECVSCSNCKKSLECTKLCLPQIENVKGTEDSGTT
Description: ELISA, receptor coated at 1 µg/mL. As for the experimental part: as §1, §2

B1: TN36-10 (antibody, V domains shown)
VH: EVQLVESGGGLIQPGGSLRLSCAASGFSLSSSAVSWVRQAPGKGLEWIGAIGSGGTSYYSNWAKSRFTISRDTSKNTVYLQMNSLRAEDTAVYFCARDPNSSDYPYGAYGMGLWGPGTLVTVSS
VL: DIQMTQSPSSLSASVGDRVTITCQVSQSISSYLSWYQQKPGKAPKLLIYYASTLASGVPSRFSGSGSGTDFTLTISSLQPEDFATYYCQQGYITSNVGNAFGGGTKVEIK
notes: Humanized; also called AL4/AL8
Consider B1, for which the values for the binding result in experiment [1], in experiment [2] and in experiment [3] were “no binding (tested: titrated from 100 µg/ml)”, “no binding (tested: titrated from 5 µg/mL)” and “no binding (tested: titrated from 5 µg/mL)”, respectively.

B2: TN36-18 (antibody, human IgG1, V domains shown)
VH: EVQLVESGGGLVQPGGSLRLSCAASGFSLSSSAVSWVRQAPGKGLEWIGAIGSGGTSYYSNWAKSRFTISRDNSKNTLYLQMNSLRAEDTAVYYCARDPNSSDYPYGAYGMGLWGPGTLVTVSS
VL: DIQMTQSPSSLSASVGDRVTITCQVSQSISSYLSWYQQKPGKAPKLLIYYASTLASGVPSRFSGSGSGTDFTLTISSLQPEDFATYYCQQGYITSNVGNAFGGGTKVEIK
notes: Humanized; also called AL6/AL8
For the molecule B2, the binding result is “no binding (tested: titrated from 100 µg/ml)” in experiment [1], “no binding (tested: titrated from 5 µg/mL)” in experiment [2] and “no binding (tested: titrated from 5 µg/mL)” in experiment [3].

B3: TN36-12 (antibody, human IgG1, V domains shown)
VH: EVQLVESGGGLIQPGGSLRLSCAASGFSLSSSAVSWVRQAPGKGLEWIGAIGSGGTSYYSNWAKSRFTISRDTSKNTVYLQMNSLRAEDTAVYFCARDPNSSDYPYGAYGMGLWGPGTLVTVSS
VL: DIQMTQSPSFLSASVGDRVTITCQVSQSISSYLSWYQQKPGKAPKLLIYYASTLASGVPSRFSGSGSGTDFTLTISSLQPEDFATYYCQQGYITSNVGNAFGGGTKVEIK
notes: Humanized; also called AL4/AL10
Consider B3, for which the binding result is listed as “no binding (tested: titrated from 100 µg/ml)” in experiment [1], “no binding (tested: titrated from 5 µg/mL)” in experiment [2] and “no binding (tested: titrated from 5 µg/mL)” in experiment [3].

B4: TN36-14 (antibody, human IgG1, V domains shown)
VH: EVQLVESGGGLVQPGGSLRLSCAASGFSLSSSAVSWVRQAPGKGLEWIGAIGSGGTSYYSNWAKSRFTISRDNSKNTLYLQMNSLRAEDTAVYYCARDPNSSDYPYGAYGMGLWGQGTLVTVSS
VL: DIQMTQSPSSLSASVGDRVTITCQVSQSISSYLSWYQQKPGKAPKLLIYYASTLASGVPSRFSGSGSGTDFTLTISSLQPEDFATYYCQQGYITSNVGNAFGGGTKVEIK
notes: Humanized; also called AL5/AL8
As for B4, the binding result is “no binding (tested: titrated from 100 µg/ml)” in experiment [1], “no binding (tested: titrated from 5 µg/mL)” in experiment [2] and “no binding (tested: titrated from 5 µg/mL)” in experiment [3].

B5: TN36-11 (antibody, human IgG1, V domains shown)
VH: EVQLVESGGGLIQPGGSLRLSCAASGFSLSSSAVSWVRQAPGKGLEWIGAIGSGGTSYYSNWAKSRFTISRDTSKNTVYLQMNSLRAEDTAVYFCARDPNSSDYPYGAYGMGLWGPGTLVTVSS
VL: DIQMTQSPSSLSASVGDRVTITCQVSQSISSYLSWYQQKPGKPPKLLIYYASTLASGVPSRFSGSGSGTDFTLTISSLQPEDFATYYCQQGYITSNVGNAFGGGTKVEIK
notes: Humanized; also called AL4/AL9
B5: the binding result in experiment [1] is on record as “no binding (tested: titrated from 100 µg/ml)”; in experiment [2], “no binding (tested: titrated from 5 µg/mL)”; in experiment [3], “no binding (tested: titrated from 5 µg/mL)”.

B6: TN36-15 (antibody, human IgG1, V domains shown)
VH: EVQLVESGGGLVQPGGSLRLSCAASGFSLSSSAVSWVRQAPGKGLEWIGAIGSGGTSYYSNWAKSRFTISRDNSKNTLYLQMNSLRAEDTAVYYCARDPNSSDYPYGAYGMGLWGQGTLVTVSS
VL: DIQMTQSPSSLSASVGDRVTITCQVSQSISSYLSWYQQKPGKPPKLLIYYASTLASGVPSRFSGSGSGTDFTLTISSLQPEDFATYYCQQGYITSNVGNAFGGGTKVEIK
notes: Humanized; also called AL5/AL9
As to B6, the values for the binding result in experiment [1], in experiment [2] and in experiment [3] were “no binding (tested: titrated from 100 µg/ml)”, “no binding (tested: titrated from 5 µg/mL)” and “no binding (tested: titrated from 5 µg/mL)”, respectively.

B7: TN36-16 (antibody, human IgG1, V domains shown)
VH: EVQLVESGGGLVQPGGSLRLSCAASGFSLSSSAVSWVRQAPGKGLEWIGAIGSGGTSYYSNWAKSRFTISRDNSKNTLYLQMNSLRAEDTAVYYCARDPNSSDYPYGAYGMGLWGQGTLVTVSS
VL: DIQMTQSPSFLSASVGDRVTITCQVSQSISSYLSWYQQKPGKAPKLLIYYASTLASGVPSRFSGSGSGTDFTLTISSLQPEDFATYYCQQGYITSNVGNAFGGGTKVEIK
notes: Humanized; also called AL5/AL10
As for B7, the figures for the binding result in experiment [1], in experiment [2] and in experiment [3] were “no binding (tested: titrated from 100 µg/ml)”, “no binding (tested: titrated from 5 µg/mL)” and “no binding (tested: titrated from 5 µg/mL)”, respectively.

B8: TN36-19 (antibody, human IgG1, V domains shown)
VH: EVQLVESGGGLVQPGGSLRLSCAASGFSLSSSAVSWVRQAPGKGLEWIGAIGSGGTSYYSNWAKSRFTISRDNSKNTLYLQMNSLRAEDTAVYYCARDPNSSDYPYGAYGMGLWGPGTLVTVSS
VL: DIQMTQSPSSLSASVGDRVTITCQVSQSISSYLSWYQQKPGKPPKLLIYYASTLASGVPSRFSGSGSGTDFTLTISSLQPEDFATYYCQQGYITSNVGNAFGGGTKVEIK
notes: Humanized; also called AL6/AL9
With B8, the binding result in experiment [1] is “no binding (tested: titrated from 100 µg/ml)”; in experiment [2], “no binding (tested: titrated from 5 µg/mL)”; in experiment [3], “no binding (tested: titrated from 5 µg/mL)”.

B9: TN36-17 (antibody, human IgG1, V domains shown)
VH: EVQLVESGGGLVQPGGSLRLSCAASGFSLSSSAVSWVRQAPGKGLEWIGAIGSGGTSYYSNWAKSRFTISRDNSKNTLYLQMNSLRAEDTAVYYCARDPNSSDYPYGAYGMGLWGQGTLVTVSS
VL: DIQLTQSPSFLSASVGDRVTITCQVSQSISSYLSWYQQKPGKAPKLLIYYASTLASGVPSRFSGSGSGTEFTLTISSLQPEDFATYYCQQGYITSNVGNAFGGGTKVEIK
notes: Humanized; also called AL5/AL11
Consider B9, for which the binding result in experiment [1] was “no binding (tested: titrated from 100 µg/ml)”; in experiment [2] it was “no binding (tested: titrated from 5 µg/mL)”; in experiment [3] it was “no binding (tested: titrated from 5 µg/mL)”.

B10: TN36-13 (antibody, human IgG1, V domains shown)
VH: EVQLVESGGGLIQPGGSLRLSCAASGFSLSSSAVSWVRQAPGKGLEWIGAIGSGGTSYYSNWAKSRFTISRDTSKNTVYLQMNSLRAEDTAVYFCARDPNSSDYPYGAYGMGLWGPGTLVTVSS
VL: DIQLTQSPSFLSASVGDRVTITCQVSQSISSYLSWYQQKPGKAPKLLIYYASTLASGVPSRFSGSGSGTEFTLTISSLQPEDFATYYCQQGYITSNVGNAFGGGTKVEIK
notes: Humanized; also called AL4/AL11
Take B10: the figures for the binding result in experiment [1], in experiment [2] and in experiment [3] were “no binding (tested: titrated from 100 µg/ml)”, “no binding (tested: titrated from 5 µg/mL)” and “no binding (tested: titrated from 5 µg/mL)”, respectively.
